Patent US20250388623A1, “PEPTIDE INHIBITOR AND USE THEREOF” (CHENGDU BRILLIANT INSPIRATION BIOTHERAPEUTICS CO., LTD, priority 2022, published 2025)
Blank lines part the entries; values can stand above or below the binder they belong to.

How the values were obtained:
[1] = molecular target: TSP-1 protein (novoprotein, Catalog No. CU45), P07996; test: competition ELISA, TSP-1 coated, CD36-Fc 0.25 µg/mL as competitor, peptide 100 µM
[2] = molecular target: TSP-1 protein (novoprotein, Catalog No. CU45), P07996; test: competition ELISA, TSP-1 coated, CD36-Fc as competitor, peptide 0-100 µM
[3] = molecular target: TSP-1 protein expressed by PMA-differentiated THP-1 macrophage-like cells, P07996; test: cell-based or functional assay
Chain of TSP-1 protein expressed by PMA-differentiated THP-1 macrophage-like cells, P07996 (P07996 19-1170 limits assumed): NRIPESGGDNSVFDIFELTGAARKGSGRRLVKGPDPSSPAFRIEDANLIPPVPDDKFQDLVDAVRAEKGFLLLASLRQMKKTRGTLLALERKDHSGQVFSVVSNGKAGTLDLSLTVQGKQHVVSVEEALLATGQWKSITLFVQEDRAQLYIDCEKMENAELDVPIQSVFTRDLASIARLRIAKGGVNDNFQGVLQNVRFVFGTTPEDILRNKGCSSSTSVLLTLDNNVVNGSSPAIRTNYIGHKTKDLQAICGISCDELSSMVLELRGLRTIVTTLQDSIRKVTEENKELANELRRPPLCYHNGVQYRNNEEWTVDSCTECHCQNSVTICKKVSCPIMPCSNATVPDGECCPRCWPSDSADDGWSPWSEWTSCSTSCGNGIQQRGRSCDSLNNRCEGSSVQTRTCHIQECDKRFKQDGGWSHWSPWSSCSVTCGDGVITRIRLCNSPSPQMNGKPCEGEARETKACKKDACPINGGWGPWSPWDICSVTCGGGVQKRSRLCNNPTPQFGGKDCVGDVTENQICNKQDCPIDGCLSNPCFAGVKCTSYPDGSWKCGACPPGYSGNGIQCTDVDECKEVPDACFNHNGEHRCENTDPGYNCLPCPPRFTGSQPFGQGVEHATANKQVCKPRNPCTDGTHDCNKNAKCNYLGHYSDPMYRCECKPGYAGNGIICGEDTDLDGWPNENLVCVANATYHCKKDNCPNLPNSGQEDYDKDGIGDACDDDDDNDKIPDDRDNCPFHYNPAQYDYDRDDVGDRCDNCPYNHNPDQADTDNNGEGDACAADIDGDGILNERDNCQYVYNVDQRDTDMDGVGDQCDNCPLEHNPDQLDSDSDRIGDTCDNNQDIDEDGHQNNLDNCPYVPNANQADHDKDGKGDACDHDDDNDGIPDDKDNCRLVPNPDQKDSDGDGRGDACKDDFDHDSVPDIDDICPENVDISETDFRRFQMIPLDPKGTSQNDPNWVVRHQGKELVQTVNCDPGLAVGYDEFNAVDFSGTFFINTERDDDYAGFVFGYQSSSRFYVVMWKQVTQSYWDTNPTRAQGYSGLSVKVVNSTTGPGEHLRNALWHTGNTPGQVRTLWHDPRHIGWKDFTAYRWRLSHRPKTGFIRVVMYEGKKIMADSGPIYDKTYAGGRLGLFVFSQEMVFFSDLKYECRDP

Chain of TSP-1 protein (novoprotein, Catalog No. CU45), P07996 (P07996 19-1170 limits assumed): as above

Blocking rate (Mean, %) [1]: 52.9%
IC50 [2]: 6.71 µM
Mean (relative fluorescence intensity), 293-TGFβ Res reporter cells (ratio to negative control) [3]: 0.43
B1: SEQ ID NO: 44 (peptide)
peptide: TCDAEDNC
modifications: not checked

Blocking rate (Mean, %) [1]: 52%
IC50 [2]: 3.62 µM
Mean (relative fluorescence intensity), 293-TGFβ Res reporter cells (ratio to negative control) [3]: 0.65
B2: SEQ ID NO: 43 (peptide)
peptide: TCDAEDNC
modifications: not checked
